Data on 1 molecule can be found in patent US20140271651A1 (AbbVie / Abbott, published 2014).

This experiment concerns the target T1, Aleuria aurantia lectin (Aleuria aurantia, UniProt P18891 2-313).
T1 construct: also called AAL; free AAL
T1 sequence (looked up): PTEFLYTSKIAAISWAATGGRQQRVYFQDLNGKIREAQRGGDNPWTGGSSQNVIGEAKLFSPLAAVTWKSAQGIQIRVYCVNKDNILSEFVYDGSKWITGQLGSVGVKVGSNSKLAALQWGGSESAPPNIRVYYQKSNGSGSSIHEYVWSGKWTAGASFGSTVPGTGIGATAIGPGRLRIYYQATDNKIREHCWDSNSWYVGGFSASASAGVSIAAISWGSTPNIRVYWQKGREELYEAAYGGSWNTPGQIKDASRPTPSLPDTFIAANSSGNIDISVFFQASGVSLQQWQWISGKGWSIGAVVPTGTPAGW
Description: EIA, GP73-hFc captured on donkey anti-human IgG Fc, biotin AAL pre-mixed with free fucose. The procedure:
The biotin labeled anti-GP73 mAbs were tested to determine if they were sensitive to the presence of fucose on the GP73-hFc antigen by EIA. Aleuria Aurantia Lectin (AAL) (Vector Laboratories) binds fucose with a high degree of specificity. Donkey anti-human IgG Fc (Jackson Immunoresearch) was coated on 96 well micro titer EIA plates at approximately 1 μg/mL. After the capture reagent was coated on the solid phase, the capture reagent was removed and the plates were blocked for 30 min using Protein-Free T20 (TBS) Blocking Buffer (Thermo Scientific). The wells were washed with distilled water. A 200 ng/mL solution of GP73-hFc antigen was added to the blocked plates and allowed to incubate at room temperature for at least 45 min then washed with distilled water. Fucose was added to the wells of a separate non-absorbing microtiter plate in serial dilutions starting from 1000 μg/mL Biotin labeled anti-GP73 mAbs were added to the plates at predetermined concentrations for each mAb ranging from 50 to 2000 ng/mL and incubated for 45 min at room temperature. The mixture was added to the microtiter plates with the captured GP73-hFc and allowed to incubate for 15-20 min at room temperature. Biotin labeled AAL was used as a positive control for the assay and a biotin labeled irrelevant mAb was used as the negative control. […] Plates were read at 492 nm and the results were analyzed.

B1: GP73-hFc (human GP73 amino acids 63 to 400 fused at the C-terminus to human IgG1 Fc) (Fc fusion)
chain: ELKKNEFQGELEKQREQLDKIQSSHNFQLESVNKLYQDEKAVLVNNITTGERLIRVLQDQLKTLQRNYGRLQQDVLQFQKNQTNLERKFSYDLSQCINQMKEVKEQCEERIEEVTKKGNEAVASRDLSENNDQRQQLQALSEPQPRLQAAGLPHTEVPQGKGNVLGNSKSQTPAPSSEVVLDSKRQVEKEETNEIQVVNEEPQRDRLPQEPGREQVVEDRPVGGRGFGGAGELGQTPQVQAALSVSQENPEMEGPERDQLVIPDGQEEEQEAAGEGRNQQKLRGEDDYNMDENEAESETDKQAALAGNDRNIDVFNVEDQKRDTINLLDQREKRNHTLRSVECPPCPAPPVAGPSVFLFPPKPKDTLMISRTPEVTCVVVDVSHEDPEVQFNWYVDGMEVHNAKTKPREEQFASTFRVVSVLTVVHQDWLNGKEYKCKVSNKGLPAPIEKTISKTKGQPREPQVYTLPPSREEMTKNQVSLTCLVKGFYPSDIAVEWESNGQPENNYKTTPPMLDSDGSFFLYSKLTVDKSRWQQGNVFSCSVMHEALHNHYTQKSLSLSPGK
notes: Expressed in HEK293F, CHO or HepG2 cells; the host is named under assay; also called HEK expressed GP73-hFc; CHO expressed GP73-hFc
Turning to B1, the binding result is “binds”.
